Laboratory results from patent publication US20210275657A1 (BIONTECH US, published 2021).
Blank lines part the entries; values can stand above or below the binder they belong to.

Legend:
HLA-A24:02 [1] = target: T1, HLA-A24:02 (human); assay: peptide-HLA affinity, Example 36
T1 construct: Construct not described

HLA-A24:02 [2] = target: T1, HLA-A24:02; assay: peptide-HLA stability, Example 36
HLA-B07:02 [3] = target: T2, HLA-B07:02 (human); assay: peptide-HLA stability, Example 9
T2 construct: Stability assay: E. coli-expressed biotinylated heavy chain with 125I-labelled b2m; MS: BAP-tagged HLA in HEK293T cells; Treated as one molecule

HLA-B08:01 [4] = target: T3, HLA-B08:01 (human); assay: peptide-HLA stability, Example 9
T3 construct: Stability assay: E. coli-expressed biotinylated heavy chain with 125I-labelled b2m; MS: BAP-tagged HLA in HEK293T cells; Treated as one molecule

HLA-B07:02 [5] = target: T2, HLA-B07:02; assay: pMHC-I dissociation, 125I-b2m, 37C; average of 2
HLA-B08:01 [6] = target: T3, HLA-B08:01; assay: pMHC-I dissociation, 125I-b2m, 37C; average of 2
HLA-B07:02 [7] = target: T2, HLA-B07:02; assay: pMHC-I dissociation, 125I-b2m, 37C; experiment 1
HLA-B08:01 [8] = target: T3, HLA-B08:01; assay: pMHC-I dissociation, 125I-b2m, 37C; experiment 1
HLA-B07:02 [9] = target: T2, HLA-B07:02; assay: pMHC-I dissociation, 125I-b2m, 37C; experiment 2
HLA-B08:01 [10] = target: T3, HLA-B08:01; assay: pMHC-I dissociation, 125I-b2m, 37C; experiment 2
HLA-B07:02 [11] = target: T2, HLA-B07:02; assay: competition vs radiolabeled peptide on purified HLA; measured IC50
HLA-B07:02 [12] = target: T2, HLA-B07:02; assay: competition vs radiolabeled peptide on purified HLA; IC50 corrected for peptide concentration
HLA-B08:01 [13] = target: T3, HLA-B08:01; assay: competition vs radiolabeled peptide on purified HLA; measured IC50
HLA-B07:02 [14] = target: T2, HLA-B07:02; assay: peptide-HLA affinity, Example 9
HLA-A03:01 [15] = target: T4, HLA-A03:01 (human); assay: peptide-HLA affinity, Example 9
T4 construct: Construct not described

HLA-A11:01 [16] = target: T5, HLA-A11:01 (human); assay: peptide-HLA affinity, Example 9
T5 construct: Construct not described

HLA-A03:01 [17] = target: T4, HLA-A03:01; assay: peptide-HLA stability, Example 9
HLA-A11:01 [18] = target: T5, HLA-A11:01; assay: peptide-HLA stability, Example 9
HLA-A02:01 [19] = target: T6, HLA-A02:01 (human); assay: peptide-HLA affinity, Example 9
T6 construct: Stability assay: E. coli-expressed biotinylated heavy chain with 125I-labelled b2m

HLA-A02:01 [20] = target: T6, HLA-A02:01; assay: peptide-HLA stability, Example 9
HLA-A03:01 [21] = target: T4, HLA-A03:01; assay: peptide-HLA affinity, Example 36
HLA-A11:01 [22] = target: T5, HLA-A11:01; assay: peptide-HLA affinity, Example 36
HLA-A01:01 [23] = target: T7, HLA-A01:01 (human); assay: peptide-HLA affinity, Example 36
T7 construct: Construct not described

HLA-A03:01 [24] = target: T4, HLA-A03:01; assay: peptide-HLA stability, Example 36
HLA-A01:01 [25] = target: T7, HLA-A01:01; assay: peptide-HLA stability, Example 36
HLA-A02:01 [26] = target: T6, HLA-A02:01; assay: pMHC-I dissociation, 125I-b2m, 37C; average of 2
HLA-A02:01 [27] = target: T6, HLA-A02:01; assay: pMHC-I dissociation, 125I-b2m, 37C; experiment 1
HLA-A02:01 [28] = target: T6, HLA-A02:01; assay: pMHC-I dissociation, 125I-b2m, 37C; experiment 2
HLA-A02:01 [29] = target: T6, HLA-A02:01; assay: competition vs radiolabeled peptide on purified HLA; measured IC50
HLA-A02:01 [30] = target: T6, HLA-A02:01; assay: competition vs radiolabeled peptide on purified HLA; IC50 corrected for peptide concentration
HLA-A24:02 [31] = target: T1, HLA-A24:02; assay: peptide-HLA affinity, Example 9
HLA-A24:02 [32] = target: T1, HLA-A24:02; assay: peptide-HLA stability, Example 9

Binder: EYMANGSLL (also called BTK C481S mutant peptide)
Affinity (HLA-A24:02 [1]): 4.96 nM | Stability (1/2 hr) (HLA-A24:02 [2]): 5.72 h

Binder: FLKAESKIMF
Observed MHC stability (HLA-B08:01 [4]): 0 h | half-life (HLA-B08:01 [6]): 0 h | half-life (HLA-B08:01 [8]): 0 h | half-life (HLA-B08:01 [10]): 0 h | IC50 (HLA-B08:01 [13]): 90 nM

Binder: KIMFATLQR
Observed MHC affinity (HLA-A03:01 [15]): 3 nM | Observed MHC affinity (HLA-A11:01 [16]): 23 nM | Observed MHC stability (HLA-A03:01 [17]): 5.6 h | Observed MHC stability (HLA-A11:01 [18]): 8.9 h

Binder: EPHLALQPL
Observed MHC stability (HLA-B07:02 [3]): 7.2 h | Observed MHC stability (HLA-B08:01 [4]): 0 h

Binder: FATLQRSSL
Observed MHC affinity (HLA-B07:02 [14]): 14 nM | Observed MHC stability (HLA-B07:02 [3]): 0.7 h | Observed MHC stability (HLA-B08:01 [4]): 0 h | half-life (HLA-B07:02 [5]): 0.7 h | half-life (HLA-B08:01 [6]): 0 h | half-life (HLA-B07:02 [7]): 0.7 h | half-life (HLA-B08:01 [8]): 0 h | half-life (HLA-B07:02 [9]): 0.6 h | half-life (HLA-B08:01 [10]): 0 h | IC50 (HLA-B07:02 [11]): 14 nM | IC50 (HLA-B08:01 [13]): 27.5 nM | IC50 (HLA-B07:02 [12]): 14 nM

Binder: IMKPKRDGYM
Observed MHC stability (HLA-B08:01 [4]): 0.4 h | half-life (HLA-B08:01 [6]): 0.4 h | half-life (HLA-B08:01 [8]): 0.4 h | half-life (HLA-B08:01 [10]): 0.4 h | IC50 (HLA-B08:01 [13]): 40.2 nM

Binder: GPPARVPAV
Observed MHC affinity (HLA-B07:02 [14]): 221 nM | Observed MHC stability (HLA-B07:02 [3]): 1.6 h | half-life (HLA-B07:02 [5]): 1.6 h | half-life (HLA-B07:02 [7]): 1.5 h | half-life (HLA-B07:02 [9]): 1.8 h | IC50 (HLA-B07:02 [11]): 282 nM | IC50 (HLA-B07:02 [12]): 221 nM

Binder: FLKAESKIM
Observed MHC stability (HLA-B08:01 [4]): 1.2 h | half-life (HLA-B08:01 [6]): 1.2 h | half-life (HLA-B08:01 [8]): 0.8 h | half-life (HLA-B08:01 [10]): 1.5 h

Binder: AIQPVLWTT
Observed MHC affinity (HLA-A02:01 [19]): 8 nM | Observed MHC stability (HLA-A02:01 [20]): 1.5 h

Binder: ESKIMFATL
Observed MHC stability (HLA-B08:01 [4]): 1.3 h | half-life (HLA-B08:01 [6]): 1.3 h | half-life (HLA-B08:01 [8]): 1 h | half-life (HLA-B08:01 [10]): 1.6 h | IC50 (HLA-B08:01 [13]): 23.3 nM

Binder: KPKRDGYMF
Observed MHC affinity (HLA-B07:02 [14]): 28 nM | Observed MHC stability (HLA-B07:02 [3]): 8.6 h | half-life (HLA-B07:02 [5]): 8.6 h | half-life (HLA-B07:02 [7]): 8.3 h | half-life (HLA-B07:02 [9]): 9 h | IC50 (HLA-B07:02 [11]): 28.2 nM | IC50 (HLA-B07:02 [12]): 28.2 nM

The remaining lines, values ahead:

Observed MHC stability (HLA-B07:02 [3]): 0 h | Observed MHC stability (HLA-B08:01 [4]): 0 h | half-life (HLA-B07:02 [5]): 0 h | half-life (HLA-B08:01 [6]): 0 h | half-life (HLA-B07:02 [7]): 0 h | half-life (HLA-B08:01 [8]): 0 h | half-life (HLA-B07:02 [9]): 0 h | half-life (HLA-B08:01 [10]): 0 h | IC50 (HLA-B07:02 [11]): 350 nM | IC50 (HLA-B07:02 [12]): 267 nM
Binder: MFATLQRSSL

Observed MHC stability (HLA-B08:01 [4]): 0 h | half-life (HLA-B08:01 [6]): 0 h | half-life (HLA-B08:01 [8]): 0 h | half-life (HLA-B08:01 [10]): 0 h | IC50 (HLA-B08:01 [13]): 167 nM
Binder: LHFCRSSIM

Observed MHC affinity (HLA-B07:02 [14]): 98 nM | Observed MHC stability (HLA-B07:02 [3]): 3.3 h | half-life (HLA-B07:02 [5]): 3.3 h | half-life (HLA-B07:02 [7]): 3.3 h | half-life (HLA-B07:02 [9]): 3.3 h | IC50 (HLA-B07:02 [11]): 115 nM | IC50 (HLA-B07:02 [12]): 98.1 nM
Binder: KPKRDGYMFL

Observed MHC affinity (HLA-A02:01 [19]): 16 nM | Observed MHC stability (HLA-A02:01 [20]): 1.1 h
Binder: VLPEPHLAL

Affinity (HLA-A03:01 [21]): 35.6 nM | Affinity (HLA-A11:01 [22]): 536 nM | Affinity (HLA-A01:01 [23]): 439 nM | Stability (1/2 hr) (HLA-A03:01 [24]): 0.238 h | Stability (1/2 hr) (HLA-A01:01 [25]): 0.216 h
Binder: MANGSLLNY (also called BTK C481S mutant peptide)

Observed MHC affinity (HLA-B07:02 [14]): 109 nM | Observed MHC stability (HLA-B07:02 [3]): 1.4 h
Binder: QPVLWTTPPL

Observed MHC affinity (HLA-A03:01 [15]): 80 nM | Observed MHC affinity (HLA-A11:01 [16]): 1730 nM | Observed MHC stability (HLA-A03:01 [17]): 0.3 h | Observed MHC stability (HLA-A11:01 [18]): 0 h
Binder: YMFLKAESK

Observed MHC affinity (HLA-A03:01 [15]): 16 nM | Observed MHC affinity (HLA-A11:01 [16]): 4540 nM | Observed MHC stability (HLA-A03:01 [17]): 0.3 h | Observed MHC stability (HLA-A11:01 [18]): 0 h
Binder: VLWTTPPLQH

Observed MHC affinity (HLA-A02:01 [19]): 118 nM | Observed MHC stability (HLA-A02:01 [20]): 0.5 h | half-life (HLA-A02:01 [26]): 0.5 h | half-life (HLA-A02:01 [27]): 0.5 h | half-life (HLA-A02:01 [28]): 0.5 h | IC50 (HLA-A02:01 [29]): 281 nM | IC50 (HLA-A02:01 [30]): 118 nM
Binder: TLQRSSLWCL

Affinity (HLA-A03:01 [21]): 95.9 nM | Affinity (HLA-A11:01 [22]): 974 nM | Affinity (HLA-A01:01 [23]): 13.2 nM | Stability (1/2 hr) (HLA-A03:01 [24]): 0.279 h | Stability (1/2 hr) (HLA-A01:01 [25]): 0.866 h
Binder: YMANGSLLNY (also called BTK C481S mutant peptide)

Observed MHC affinity (HLA-A24:02 [31]): 332 nM | Observed MHC stability (HLA-A24:02 [32]): 0.2 h
Binder: MFLKAESKI
